Test results taken from patent publication US10786543B2, “P75NTR antagonists and treatment of acute and chronic cardiac disease” (THE JOHNS HOPKINS UNIVERSITY, priority 2015, dated 2020).
Ends that are not written are not given here.

T1: p75^NTR (Mus musculus, UniProt Q9Z0W1)
T1 construct: from tissue; host or cells: living mice (heart and other tissues) after transverse aortic constriction
T1 sequence (Q9Z0W1 32-427): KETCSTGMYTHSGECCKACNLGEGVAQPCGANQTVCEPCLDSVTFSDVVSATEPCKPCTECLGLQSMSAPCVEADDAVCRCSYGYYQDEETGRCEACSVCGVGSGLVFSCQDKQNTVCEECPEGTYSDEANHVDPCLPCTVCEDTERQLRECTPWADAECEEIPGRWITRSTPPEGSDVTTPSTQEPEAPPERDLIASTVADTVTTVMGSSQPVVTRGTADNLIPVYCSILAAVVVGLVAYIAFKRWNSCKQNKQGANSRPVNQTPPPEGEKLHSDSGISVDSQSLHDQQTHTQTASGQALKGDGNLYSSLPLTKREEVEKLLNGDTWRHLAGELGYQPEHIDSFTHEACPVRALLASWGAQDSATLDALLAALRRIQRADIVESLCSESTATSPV

B1: proBDNF: uncleaved (immature) neurotrophin, pro-brain derived neurotrophic factor, activates p75^NTR (protein, UniProt P23560 19-247, looked up)
pro-form: APMKEANIRGQGGLAYPGVRTHGTLESVNGPKAGSRGLTSLADTFEHVIEELLDEDQKVRPNEENNKDADLYTSRVMLSSQVPLEPPLLFLLEEYKNYLDAANMSMRVRRHSDPARRGELSVCDSISEWVTAADKKTAVDMSGGTVTVLEKVPVSKGQLKQYFYETKCNPMGYTKEGCRGIDKRHWNSQCRTTQSYVRALTMDSKKRIGWRFIRIDTSCVCTLTIKRGR
modifications: pro-form

Tests used:
[1] = biological target: T1, p75^NTR; assay: Transverse aortic constriction (TAC) pressure overload/heart failure with chronic P75NTR antagonist infusion, echocardiography; format: in vivo; conditions: TAC mice; chronic infusion for 5 weeks, instituted 1 week after TAC; 200 μg/kg/day s.c. osmotic pump; FIG. 3
Method: Transverse aortic constriction (TAC) was performed following a previously reported protocol (J. Clin. Invest., 2005; 115(5):1221-31; Circ. Res., 2010; 106(1):193-202; Antioxid Redox Signal 2014; 20(2):267-80). After induction of anesthesia and intubation, mice were placed on a volume ventilator (120 breaths/min, 1.2 ml/g/min) and anesthesia was maintained with […] isofluorane. The aortic arch was isolated and tied against a 27-gauge needle, resulting in a 65-70% constriction after the removal of the needle. The chest and skin were closed and animals extubated and allowed to fully recover. Sham-operated mice underwent the same operation except that after the aortic arch was isolated, no ligature was placed. The ALZET osmotic pump (Model 2004) with P75^NTR peptidic antagonist (200 μg/kg/day) or saline vehicle was placed subcutaneously one week after TAC. P75^NTR antagonistic cyclic peptide (CATDIKGAEC) (SEQ ID NO: 1) was synthesized at the Johns Hopkins Synthesis and Sequencing Facility. […]
In vivo cardiac morphology and function were assessed by serial M-mode echocardiography (Acuson Sequioa C256, 13 MHz transducer, Siemens, Pa.) performed in conscious mice. […] LV percent FS, EF and LV mass were calculated as described previously. […]

[2] = tested on: control mouse hearts; assay: LV function and coronary tone in Langendorff-perfused control mouse hearts infused with proBDNF
Text: (§1) After anesthesia, hearts were harvested and the aorta cannulated and retrogradely perfused with Krebs-Henseleit (KH) buffer warmed and gassed with 95% O2 and 5% CO2, as reported previously (Antioxid. Redox Signal, 2013; 19(11):1185-97). Briefly, hearts were paced at 600 bpm (10 Hz, 4 ms duration, 4 V) and LV function monitored with a water-filled balloon, connected to a pressure transducer coupled to a continuous data recording system. After stabilization, in addition to LV function parameters, baseline values of coronary perfusion pressure (CPP) were obtained through a side-arm of the aortic cannula connected to a separate pressure transducer.

[3] = tested on: isolated healthy mouse myocytes; assay: Sarcomere shortening and whole Ca^2+ transient in isolated healthy mouse myocytes; format: cell-based; conditions: directly applied to isolated healthy mouse myocytes
Method: Isolation of rat and mouse ventricular myocytes was carried out as previously described and approved by the Animal Care and Use Committee of Johns Hopkins University. Mice were anesthetized with intraperitoneal pentobarbital sodium (100 mg/kg). To assess for sarcomere shortening, cells were imaged using field stimulation (0.5 Hz) in an inverted fluorescence microscope (Diaphot 200; Nikon, Inc). Sarcomere length was measured by real-time Fourier transform (IonOptix MyoCam, CCCD100M). Twitch amplitude is expressed as a percentage of resting cell length. Twitch kinetics was quantified by measuring the time to peak shortening and the time from peak shortening to 50% relaxation. For whole Ca^2+ transient measurements, myocytes were loaded with the Ca^2+ indicator fluo-4/A M (Molecular Probes, 20 μM for 30 min) and Ca^2+ transients were measured under field-stimulation (0.5 Hz) in perfusion solution by confocal laser scanning microscope (LSM510, Carl Zeiss). Digital image analysis used customer-designed programs coded in Interactive Data Language (IDL).

[4] = tested on: isolated p75^NTR-/- whole hearts; assay: LV function and coronary tone in Langendorff-perfused isolated p75^NTR-/- whole hearts infused with proBDNF; parameters: species or system mouse; conditions: hearts of mice lacking p75^NTR; FIG. 7
Text: as §1

Molecule | LV ejection fraction [1] | coronary perfusion pressure (CPP), vasoconstriction ([2]; FIG. 4A) | overall left-ventricle (LV) function: relaxation ([2]; FIG. 4F) | overall left-ventricle (LV) function: contractility ([2]; FIGS. 4B, D and E) | amplitude of the whole Ca^2+ transient ([3]; FIGS. 5 and 6 lower panels) | diastolic Ca^2+ levels ([3]; FIGS. 5 and 6 lower panels) | contractility (extent of sarcomere shortening) ([3]; FIGS. 5 and 6 upper panels) | LV function [4] | coronary vascular tone [4]
CATDIKGAEC (also: cyclic) | preserved | – | – | – | – | – | – | – | –
B1 | – | markedly higher | reducing | reducing | reduces | rise | reduces | does not alter | does not alter
